Molecular target: SARS-CoV-2 S on pseudotyped lentivirus (pCMV-SARS2deltaC-gp41) (SARS-CoV-2, UniProt P0DTC2 14-1246)
Assay: cell-based or functional assay

Binder | IC50 of neutralization of pseudotyped lentiviral infection [nM] | IC50 of pseudovirus neutralization [nM] | pseudovirus neutralization potency, fold increase against monomeric SR6v15 [fold]
SR6c3 (VHH) VHH: EVQLVESGGGLVQAGDSLRLSCAASGDCHVLWRMGWFRQAPGKEREFVAAISLDGQFTNYADSVRGRFSISADSAKNTVYLQMNSLKPEDTAVYYCAALPFLDYWGQGTQVTVSS | 62.7 | – | –
SR6v15.d (VHH) EVQLVESGGGLVQAGDSLRLSCAASGDSYILWRMGWFRQAPGKEREFVAAISLDGQFTNYADSVRGRFSISADSAKYTVYLQMNSLKPEDTAVYYCAALPFLDYWGQGTQVTVSSEVQLVESGGGLVQAGDSLRLSCAASGDSYILWRMGWFRQAPGKEREFVAAISLDGQFTNYADSVRGRFSISADSAKYTVYLQMNSLKPEDTAVYYCAALPFLDYWGQGTQVTVSS | – | 0.329 | > 10

Reference: patent US20230303666A1 (published 2023)
